Paper PMC4160250

Tests used:
[1] = biological target: UbP_C (C-terminal part of DC-UbP, residues 129-234), His-tagged (human) (UniProt Q8WUN7); assay: NMR titration; 15N-labelled UbP_C (200 uM; 150 uM for the affinity) titrated with USP5_UBA12 or USP5_ZnF; 1H-15N HSQC, 20 mM phosphate, 50 mM NaCl, pH 6.5, 298 K
[2] = biological target: His-tagged DC-UbP (human) (UniProt Q8WUN7); assay: NMR titration; 15N-labelled DC-UbP (100 uM) titrated stepwise with unlabelled USP5, UbE1, FH or SCCH; 1H-15N HSQC, 20 mM phosphate, 50 mM NaCl, pH 6.5, 298 K
Chain of His-tagged DC-UbP (human) (Q8WUN7 whole entry): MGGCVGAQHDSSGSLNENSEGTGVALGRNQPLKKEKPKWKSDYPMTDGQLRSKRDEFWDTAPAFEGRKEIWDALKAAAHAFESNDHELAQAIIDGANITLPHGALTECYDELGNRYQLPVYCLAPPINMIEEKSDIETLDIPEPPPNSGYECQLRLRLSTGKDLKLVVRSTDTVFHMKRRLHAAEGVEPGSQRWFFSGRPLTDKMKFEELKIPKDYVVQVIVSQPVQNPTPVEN

Chain of UbP_C (C-terminal part of DC-UbP, residues 129-234), His-tagged (human) (Q8WUN7 129-234): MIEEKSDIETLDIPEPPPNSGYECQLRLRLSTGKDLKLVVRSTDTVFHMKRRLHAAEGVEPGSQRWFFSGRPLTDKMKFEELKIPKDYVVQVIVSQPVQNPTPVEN

## USP5_UBA12 (tandem UBA domains of USP5, residues 625-749) (from UniProt P45974 625-749) (domain or fragment)
[1]
  Kd: 400 µM

## USP5, recombinant, purified (from UniProt P45974 1-858) (enzyme)
[2]
  mean relative peak intensity of the UBD domain of DC-UbP at 1:1 molar ratio (free DC-UbP = 1): 0.56
  mean relative peak intensity of the UbL domain of DC-UbP at 1:1 molar ratio (free DC-UbP = 1): 0.27
